From publication PMC2408619 (2008)

T1: Biotinylated Prn-E (pertactin residues 38-640 with N-terminal biotinylation sequence) (B. bronchiseptica, UniProt Q03035 38-640, biotin (in vivo biotinylation of the N-terminal biotinylation sequence))
T1 chain: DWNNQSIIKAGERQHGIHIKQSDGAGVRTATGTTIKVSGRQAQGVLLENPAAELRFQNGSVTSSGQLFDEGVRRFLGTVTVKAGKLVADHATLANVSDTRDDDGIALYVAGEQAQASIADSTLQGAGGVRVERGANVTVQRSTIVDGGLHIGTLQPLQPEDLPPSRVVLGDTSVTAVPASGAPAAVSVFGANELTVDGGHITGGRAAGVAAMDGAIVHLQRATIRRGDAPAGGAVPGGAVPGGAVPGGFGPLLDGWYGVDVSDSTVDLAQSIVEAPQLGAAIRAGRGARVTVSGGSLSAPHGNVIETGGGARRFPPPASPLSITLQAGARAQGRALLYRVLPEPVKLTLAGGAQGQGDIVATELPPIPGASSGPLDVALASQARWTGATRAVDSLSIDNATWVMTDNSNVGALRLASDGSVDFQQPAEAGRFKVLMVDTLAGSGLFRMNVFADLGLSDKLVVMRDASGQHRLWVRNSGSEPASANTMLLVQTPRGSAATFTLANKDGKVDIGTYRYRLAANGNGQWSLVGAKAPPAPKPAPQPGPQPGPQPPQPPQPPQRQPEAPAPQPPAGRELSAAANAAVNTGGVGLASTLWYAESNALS

B1: Pertactin on the surface of Bvg+ B. bronchiseptica RB53 (receptor)
chain: DWNNQSIIKAGERQHGIHIKQSDGAGVRTATGTTIKVSGRQAQGVLLENPAAELRFQNGSVTSSGQLFDEGVRRFLGTVTVKAGKLVADHATLANVSDTRDDDGIALYVAGEQAQASIADSTLQGAGGVRVERGANVTVQRSTIVDGGLHIGTLQPLQPEDLPPSRVVLGDTSVTAVPASGAPAAVSVFGANELTVDGGHITGGRAAGVAAMDGAIVHLQRATIRRGDAPAGGAVPGGAVPGGAVPGGFGPLLDGWYGVDVSDSTVDLAQSIVEAPQLGAAIRAGRGARVTVSGGSLSAPHGNVIETGGGARRFPPPASPLSITLQAGARAQGRALLYRVLPEPVKLTLAGGAQGQGDIVATELPPIPGASSGPLDVALASQARWTGATRAVDSLSIDNATWVMTDNSNVGALRLASDGSVDFQQPAEAGRFKVLMVDTLAGSGLFRMNVFADLGLSDKLVVMRDASGQHRLWVRNSGSEPASANTMLLVQTPRGSAATFTLANKDGKVDIGTYRYRLAANGNGQWSLVGAKAPPAPKPAPQPGPQPGPQPPQPPQPPQRQPEAPAPQPPAGRELSAAANAAVNTGGVGLASTLWYAESNALSKRLGELRLNPDAGGAWGRGFAQRQQLDNRAGRRFDQKVAGFELGADHAVAVAGGRWHLGGLAGYTRGDRGFTGDGGGHTDSVHVGGYATYIANSGFYLDATLRASRLENDFKVAGSDGYAVKGKYRTHGVGASLEAGRRFAHADGWFLEPQAELAVFRVGGGAYRAANGLRVRDEGGSSVLGRLGLEVGKRIELAGGRQVQPYIKASVLQEFDGAGTVRTNGIAHRTELRGTRAELGLGMAAALGRGHSLYASYEYSKGPKLAMPWTFHAGYRYSW
B2: BPP-1 phage displaying Mtd-P1 (other)
chain: MSTAVQFRGGTTAQHATFTGAAREITVDTDKNTVVVHDGATAGGFPLARHDLVKTAFIKADKSAVAFTRTGNATASIKAGTIVEVNGKLVQFTADTAITMPALTAGTDYAIYVCDDGTVRADSNFSAPTGYTSTTARKVGGFHYAPGSNAAAQAGGNTTAQINEYSLWDIKFRPAALDPRGMTLVAGAFWADIYLLGVNHLTDGTSKYNVTIADGSASPKKSTKFGGDGSAAYSDGAWYNFAEVMTHHGKRLPNYNEFQALAFGTTEATSSGGTDVPTTGVNGTGATSAWNIFTSKWGVVQASGCLWTWGNEFGGVNGASEYTANTGGRGSVYAQPAAALFGGAWNGTSLSGSRAALWYSGPSFSFAFFGARGVCDHLILE

Columns and labels:
[1] = biological target: BPP-6 phage displaying Mtd-P6 (Bordetella bacteriophage BPP-6, UniProt Q775D6)
[2] = biological target: T1, Biotinylated Prn-E (pertactin residues …); assay: SPR
[3] = biological target: B1

| Binder | Kd [1] [pM] | koff [2] [s⁻¹] | Kd [3] [pM] |
| --- | --- | --- | --- |
| B1 | 0.059 |  |  |
| B2 |  | 0.000636 | 3.7 |
